Our source for the OD450 nm values is patent US20250250357A1 (NANJING ZAIMING PHARMACEUTICAL, published 2025).

Where a chain is given by its changes, count along the chain named. Names may count otherwise.

To fix the notation:
B1: F2.39.3-H5 (scFv, not shown: small tags and cut ends)
scFv: EVQLVQSGAEVKKPGASVKVSCKASGYTFTNYWMHWVRQAPGQGLEWMGNINPSSGDSYYNERFMSRVTMTVDKSTSTAYMELSSLRSEDTAVYYCARSGGLWLAFWGQGTLVTVSSGGGGSGGGGSGGGGSDIVMTQSPDSLAVSLGERATINCKSSQTLLNSVSQNNYLAWYQQKPGQSPKLLIYFASTRESGVPDRFSGSGSGTDFTLTISSLQAEDVAVYYCQQHYRTPYTFGGGTKVEIK
notes: also called S009-F2.39.3 humanized VH2 + VL1
B2: F2.39.3-H6 (scFv, not shown: small tags and cut ends)
scFv: B1 scFv with K183T
notes: also called S009-F2.39.3 humanized VH2 + VL2
B3: F2.39.3-H9 (scFv, not shown: small tags and cut ends)
scFv: B1 scFv with Q109P
notes: also called S009-F2.39.3 humanized VH3 + VL1
B4: F2.39.3-H1 (scFv, not shown: small tags and cut ends)
scFv: B1 scFv with A79V
notes: expressed as VH-(G4S)3-VL-his or VL-(G4S)3-VH-his; also called S009-F2.39.3 humanized VH1 + VL1
B5: F2.39.3-H2 (scFv, not shown: small tags and cut ends)
scFv: B1 scFv with A79V, K183T
notes: also called S009-F2.39.3 humanized VH1 + VL2
B6: F2.39.3-H8 (scFv, not shown: small tags and cut ends)
scFv: EVQLVQSGAEVKKPGASVKVSCKASGYTFTNYWMHWVRQAPGQGLEWMGNINPSSGDSYYNERFMSRVTMTVDKSTSTAYMELSSLRSEDTAVYYCARSGGLWLAFWGQGTLVTVSSGGGGSGGGGSGGGGSDIVMTQTPLSLSVTPGQPASISCKSSQTLLNSVSQNNYLAWYQQKPGQSPTLLVYFASTRESGVPDRFSGSGSGTDFTLKISRVEAEDVGVYYCQQHYRTPYTFGGGTKVEIK
notes: also called S009-F2.39.3 humanized VH2 + VL4
B7: F2.23.12-H5 (scFv, not shown: small tags and cut ends)
scFv: EVQLVQSGAEVKKPGASVKVSCKASGYTFTNYWMHWVRQAPGQGLEWMGNINPSNGGPYYNERFRSRVTMTVDKSTSTAYMELSSLRSEDTAVYYCARPYYGSSYGYFDYWGQGTTVTVSSGGGGSGGGGSGGGGSDIQMTQSPSSLSASVGDRVTITCKASQDINKYIAWYQQKPGKAPKLLIHYTSELQPGVPSRFSGSGSGTDFTFTISSLQPEDIATYYCLQYANPLRTFGGGTKVEIK
notes: also called S009-F2.23.12 humanized VH2 + VL1
B8: F2.23.12-H4 (scFv, not shown: small tags and cut ends)
scFv: B7 scFv with A79V, Q174H, T205R, F207Y
notes: also called S009-F2.23.12 humanized VH1 + VL4
B9: F2.23.12-H1 (scFv, not shown: small tags and cut ends)
scFv: B7 scFv with A79V
notes: also called S009-F2.23.12 humanized VH1 + VL1
B10: F2.23.12-H8 (scFv, not shown: small tags and cut ends)
scFv: B7 scFv with Q174H, T205R, F207Y
notes: also called S009-F2.23.12 humanized VH2 + VL4
B11: F2.23.12-H16 (scFv, not shown: small tags and cut ends)
scFv: B7 scFv with N55Q, Q174H, T205R, F207Y
notes: also called S009-F2.23.12 humanized VH4 + VL4
B12: F2.23.12-H13 (scFv, not shown: small tags and cut ends)
scFv: B7 scFv with N55Q
notes: also called S009-F2.23.12 humanized VH4 + VL1

The target of the first assay is T1, human MSLN-hFc protein (Acro, Cat. No. MSN-H5253) (human, UniProt Q13421 296-580).
T1 construct: bought protein; also called human MSLN full-length protein; not shown: human Fc (hFc) of the bought protein
T1 sequence (Q13421 other isoform, or with tags, fused parts or gaps limits assumed): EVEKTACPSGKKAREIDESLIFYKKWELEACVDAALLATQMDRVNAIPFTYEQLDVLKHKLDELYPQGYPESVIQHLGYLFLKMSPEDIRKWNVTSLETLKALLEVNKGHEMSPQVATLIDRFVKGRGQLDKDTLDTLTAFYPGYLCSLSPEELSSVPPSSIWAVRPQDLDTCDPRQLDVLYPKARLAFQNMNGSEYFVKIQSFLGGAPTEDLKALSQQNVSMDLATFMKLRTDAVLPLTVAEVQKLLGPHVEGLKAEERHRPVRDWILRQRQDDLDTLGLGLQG
Put plainly: ELISA, coated human MSLN-hFc, antibody 1 nM. On the technique in general: ELISA stands for enzyme-linked immunosorbent assay.
As to B1, the OD450 nm is 0.39.

For the molecule B2, the OD450 nm stood at 0.31.

As to B3, the OD450 nm was 0.39.

The molecule B4 displayed an OD450 nm of 0.55.

In the case of B5, the OD450 nm amounted to 0.3.

As for B6, the OD450 nm was found to be 0.31.

A further assay addresses T1, human MSLN-hFc protein (Acro, Cat. No. …). Put plainly: ELISA, coated human MSLN-hFc, antibody 1 nM. The source holds these as a separate data set.
In the case of B7, the OD450 nm was 0.22.

The molecule B8 came in with an OD450 nm of 0.57.

On to B9, for which the OD450 nm was 0.26.

B10 showed an OD450 nm of 0.17.

Take B11: the OD450 nm was determined as 0.13.

Molecule B12 registered an OD450 nm of 0.16.

For another assay the target is unchanged. Put plainly: ELISA, coated human MSLN-hFc, antibody 10 nM.
In turn, B1 had an OD450 nm of 1.21.

Molecule B2 returned an OD450 nm of 1.18.

B3 had an OD450 nm of 1.22.

B4: the OD450 nm is 1.23.

In turn, B5 showed an OD450 nm of 1.19.

For the molecule B6, the OD450 nm worked out at 1.17.

The target is the same in a further assay. Put plainly: ELISA, coated human MSLN-hFc, antibody 10 nM. The source holds these as a separate data set.
Turning to B7, the OD450 nm amounted to 0.83.

B8 registered an OD450 nm of 0.92.

On to B9, for which the OD450 nm worked out at 0.82.

The molecule B10 returned an OD450 nm of 0.62.

As to B11, the OD450 nm came to 0.64.

Consider B12, for which the OD450 nm was 0.73.

The target is the same in the next assay. Kind of assay: ELISA, coated human MSLN-hFc, antibody 0.1 nM.
On to B1, for which the OD450 nm came to 0.11.

B2 showed an OD450 nm of 0.1.

With B3, the OD450 nm is 0.11.

Molecule B4 returned an OD450 nm of 0.17.

For the molecule B5, the OD450 nm was 0.1.

B6 yielded an OD450 nm of 0.1.

For the next assay the target is unchanged. Kind of assay: ELISA, coated human MSLN-hFc, antibody 100 nM.
B1: the OD450 nm was determined as 1.87.

Consider B2, for which the OD450 nm turned out to be 1.69.

B3: the OD450 nm was 1.81.

For the molecule B4, the OD450 nm amounted to 1.68.

Turning to B5, the OD450 nm turned out to be 1.82.

B6 returned an OD450 nm of 1.95.

The next assay has the same target. Kind of assay: ELISA, coated human MSLN-hFc, antibody 0.1 nM. This is another data set of the same source.
For B7, the OD450 nm was found to be 0.09.

Regarding B8, the OD450 nm was 0.18.

B9 returned an OD450 nm of 0.09.

In turn, B10 came in with an OD450 nm of 0.09.

Consider B11, for which the OD450 nm stood at 0.07.

With B12, the OD450 nm worked out at 0.08.

Another assay has the same target. Kind of assay: ELISA, coated human MSLN-hFc, antibody 100 nM. The source holds these as a separate data set.
B7 yielded an OD450 nm of 1.37.

Molecule B8 displayed an OD450 nm of 1.22.

B9 returned an OD450 nm of 1.22.

B10 registered an OD450 nm of 1.22.

B11 came in with an OD450 nm of 1.2.

Turning to B12, the OD450 nm is 1.38.

A further assay has the same target. Put plainly: ELISA, coated human MSLN-hFc, antibody 0.01 nM.
The molecule B1 displayed an OD450 nm of 0.06.

B2 showed an OD450 nm of 0.07.

Take B3: the OD450 nm was 0.06.

In the case of B4, the OD450 nm turned out to be 0.07.

Turning to B5, the OD450 nm amounted to 0.06.

In turn, B6 gave an OD450 nm of 0.06.

Another assay has the same target. Kind of assay: ELISA, coated human MSLN-hFc, antibody 0.01 nM. The source holds these as a separate data set.
In the case of B7, the OD450 nm was 0.07.

B8 came in with an OD450 nm of 0.09.

The molecule B9 showed an OD450 nm of 0.07.

The molecule B10 gave an OD450 nm of 0.07.

For B11, the OD450 nm was 0.06.

In turn, B12 had an OD450 nm of 0.07.

The target is the same in the next assay. Kind of assay: ELISA, coated human MSLN-hFc, antibody 0.001 nM.
On to B1, for which the OD450 nm worked out at 0.06.

Molecule B2 came in with an OD450 nm of 0.06.

Consider B3, for which the OD450 nm amounted to 0.06.

The molecule B4 yielded an OD450 nm of 0.06.

In turn, B5 gave an OD450 nm of 0.06.

The molecule B6 gave an OD450 nm of 0.06.

Another assay shares this target. Kind of assay: ELISA, coated human MSLN-hFc, antibody 0.001 nM. The source holds these as a separate data set.
As for B7, the OD450 nm amounted to 0.06.

For the molecule B8, the OD450 nm came to 0.08.

In the case of B9, the OD450 nm was determined as 0.06.

In turn, B10 gave an OD450 nm of 0.07.

As to B11, the OD450 nm was 0.07.

In turn, B12 showed an OD450 nm of 0.07.

The target is the same in a further assay. Kind of assay: ELISA, coated human MSLN-hFc, antibody 0.0001 nM.
In turn, B1 came in with an OD450 nm of 0.06.

With B2, the OD450 nm stood at 0.06.

The molecule B3 displayed an OD450 nm of 0.05.

B4 came in with an OD450 nm of 0.06.

B5 came in with an OD450 nm of 0.06.

Consider B6, for which the OD450 nm stood at 0.05.

For another assay the target is unchanged. Put plainly: ELISA, coated human MSLN-hFc, antibody 0.0001 nM. The source holds these as a separate data set.
Turning to B7, the OD450 nm is 0.06.

B8: the OD450 nm amounted to 0.07.

In turn, B9 showed an OD450 nm of 0.07.

B10 gave an OD450 nm of 0.05.

On to B11, for which the OD450 nm was determined as 0.05.

B12 displayed an OD450 nm of 0.05.
